Data taken from patent US20230181729A1 (published 2023).

T1: PRAME (PRAME-004) peptide on HLA-A*02:01 (human)
T1 peptide: SLLQHLIGL

B1: R17P1D7 (TCR, V domains shown)
Valpha: AQTVTQSQPEMSVQEAETVTLSCTYDTSESDYYLFWYKQPPSRQMILVIRQEAYKQQNATENRFSVNFQKAAKSFSLKISDSQLGDAAMYFCAYRWAQGGSEKLVFGKGTKLTVNP
Vbeta: EADIYQTPRYLVIGTGKKITLECSQTMGHDKMYWYQQDPGMELHLIHYSYGVNSTEKGDLSSESTVSRIRTEHFPLTLESARPSHTSQYLCATELWSSGGTGELFFGEGSRLTVL
B2: R17P1A9 (TCR, V domains shown)
Valpha: QKEVEQNSGPLSVPEGAIASLNCTYSDRGSQSFFWYRQYSGKSPELIMSIYSNGDKEDGRFTAQLNKASQYVSLLIRDSQPSDSATYLCAVLNQAGTALIFGKGTTLSVSS
Vbeta: DSGVTQTPKHLITATGQRVTLRCSPRSGDLSVYWYQQSLDQGLQFLIQYYNGEERAKGNILERFSAQQFPDLHSELNLSSLELGDSALYFCASSAETGPWLGNEQFFGPGTRLTVL
B3: R16P1E8 (TCR, V domains shown)
Valpha: QKEVEQDPGPLSVPEGAIVSLNCTYSNSAFQYFMWYRQYSRKGPELLMYTYSSGNKEDGRFTAQVDKSSKYISLFIRDSQPSDSATYLCAMSEAAGNKLTFGGGTRVLVKP
Vbeta: EAGVAQSPRYKIIEKRQSVAFWCNPISGHATLYWYQQILGQGPKLLIQFQNNGVVDDSQLPKDRFSAERLKGVDSTLKIQPAKLEDSAVYLCASSYTNQGEAFFGQGTRLTVV

Molecular target: T1, PRAME (PRAME-004) peptide on HLA-A*02:01
Assay: cytokine release

Row | Binder | binding result
1 | B1 | recognises
2 | B2 | recognises
3 | B3 | recognises
